Laboratory results as given in patent US20230240966.

T1: Suc-AAPR-pNA
T1 chain: AAPR

T2: Suc-AAPE-pNA
T2 chain: AAPE

T3: Suc-AAPV-pNA
T3 chain: AAPV

T4: Suc-AAPD-pNA
T4 chain: AAPD

T5: Suc-AAPK-pNA
T5 chain: AAPK

T6: Suc-AAPF-pNA
T6 chain: AAPF

T7: Suc-AAPM-pNA
T7 chain: AAPM

T8: Suc-AAPI-pNA
T8 chain: AAPI

T9: Suc-AAPA-pNA
T9 chain: AAPA

T10: Suc-AAPL-pNA
T10 chain: AAPL


Experiments:
[1] = target: T1, Suc-AAPR-pNA; conditions: scale: relative to the substrate with the highest activity
[2] = target: T2, Suc-AAPE-pNA; conditions: for relative activity (initial increase in OD405): scale: relative to the substrate with the highest activity
[3] = target: T3, Suc-AAPV-pNA; conditions: scale: relative to the substrate with the highest activity
[4] = target: T4, Suc-AAPD-pNA; conditions: scale: relative to the substrate with the highest activity
[5] = target: T5, Suc-AAPK-pNA; conditions: scale: relative to the substrate with the highest activity
[6] = target: T6, Suc-AAPF-pNA; conditions: scale: relative to the substrate with the highest activity
[7] = target: T7, Suc-AAPM-pNA; conditions: scale: relative to the substrate with the highest activity
[8] = target: T8, Suc-AAPI-pNA; conditions: scale: relative to the substrate with the highest activity
[9] = target: T9, Suc-AAPA-pNA; conditions: scale: relative to the substrate with the highest activity
[10] = target: T10, Suc-AAPL-pNA; conditions: scale: relative to the substrate with the highest activity
[11] = target: type II (60-70 kDa) keratins of the ORS

Protein | relative activity (initial increase in OD405) [1] | Glutamyl endopeptidase ratio (GR) [2] | relative activity (initial increase in OD405) [2] | relative activity (initial increase in OD405) [3] | relative activity (initial increase in OD405) [4] | relative activity (initial increase in OD405) [5] | relative activity (initial increase in OD405) [6] | relative activity (initial increase in OD405) [7] | relative activity (initial increase in OD405) [8] | relative activity (initial increase in OD405) [9] | relative activity (initial increase in OD405) [10] | hydrolysis of ORS tissue protein, SDS-PAGE with Coomassie Blue [11]
Serine protease from Nocardiopsis sp NRRL 18262 (protein) ADIIGGLAYTMGGRCSVGFAATNAAGQPGFVTAGHCGRVGTQVTIGNGRGVFEQSVFPGNDAAFVRGTSNFTLTNLVSRYNTGGYATVAGHNQAPIGSSVCRSGSTTGWHCGTIQARGQSVSYPEGTVTNMTRTTVCAEPGDSGGSYISGTQAQGVTSGGSGNCRTGGTTFYQEVTPMVNSWGVRLRT | 0.172 | < 0.001 | 0.0004 | 0.0121 | 0.0028 | 0.0778 | 1 | 0.0003 | 0.0004 | 0.0001 | 0.185 | –
Lysyl endopeptidase from Achromobacter lyticus (protein) GVSGSCNIDVVCPEGDGRRDIIRAVGAYSKSGTLACTGSLVNNTANDRKMYFLTAHHCGMGTASTAASIVVYWNYQNSTCRAPNTPASGANGDGSMSQTQSGSTVKATYATSDFTLLELNNAANPAFNLFWAGWDRRDQNYPGAIAIHHPNVAEKRISNSTSPTSFVAWGGGAGTTHLNVQWQPSGGVTEPGSSGSPIYSPEKRVLGQLHGGPSSCSATGTNRSDQYGRVFTSWTGGGAAASRLSDWLDPASTGAQFIDGLDSGGGTP | 0.0005 | < 0.001 | 0 | 0.0007 | 0.0006 | 1 | 0.0041 | 0 | 0.0017 | 0.0005 | 0.0019 | –
Glutamyl endopeptidase II sprE from Streptomyces griseus (protein) VLGGGAIYGGGSRCSAAFNVTKGGARYFVTAGHCTNISANWSASSGGSVVGVREGTSFPTNDYGIVRYTDGSSPAGTVDLYNGSTQDISSAANAVVGQAIKKSGSTTKVTSGTVTAVNVTVNYGDGPVYNMVRTTACSAGGDSGGAHFAGSVALGIHSGSSGCSGTAGSAIHQPVTEALSAYGVTVY | 0.0001 | 6 | 1 | 0 | 0.158 | 0 | 0 | 0.0001 | 0 | 0 | 0 | –
Glutamyl endopeptidase blaSE from Bacillus licheniformis (protein) SVIGSDDRTRVTNTTAYPYRAIVHISSSIGSCTGWMIGPKTVATAGHCIYDTSSGSFAGTATVSPGRNGTSYPYGSVKSTRYFIPSGWRSGNTNYDYGAIELSEPIGNTVGYFGYSYTTSSLVGTTVTISGYPGDKTAGTQWQHSGPIAISETYKLQYAMDTYGGQSGSPVFEQSSSRTNCSGPCSLAVHTNGVYGGSSYNRGTRITKEVFDNLTNWKNSAQ | 0.0001 | 309 | 1 | 0.0001 | 0.002 | 0.0001 | 0.0032 | 0.0008 | 0 | 0.0001 | 0.0027 | 5 ppm HZ-2 fully degraded type I and type II during the experiment
Trypsin from Fusarium oxysporum (protein) IVGGTSASAGDFPFIVSISRNGGPWCGGSLLNANTVLTAAHCVSGYAQSGFQIRAGSLSRTSGGITSSLSSVRVHPSYSGNNNDLAILKLSTSIPSGGNIGYARLAASGSDPVAGSSATVAGWGATSEGGSSTPVNLLKVTVPIVSRATCRAQYGTSAITNQMFCAGVSSGGKDSCQGDSGGPIVDSSNTLIGAVSWGNGCARPNYSGVYASVGALRSFIDTYA | 1 | < 0.001 | 0.0001 | 0 | 0 | 0.84 | 0.0001 | 0 | 0 | 0 | 0 | –
Thermostable alkaline protease BH0855 from Bacillus halodurans (protein) QTVPWGISFINTQQAHNRGIFGNGARVAVLDTGIASHPDLRIAGGASFISSEPSYHDNNGHGTHVAGTIAALNNSIGVLGVAPSADLYAVKVLDRNGSGSLASVAQGIEWAINNNMHIINMSLGSTSGSSTLELAVNRANNAGILLVGAAGNTGRQGVNYPARYSGVMAVAAVDQNGQRASFSTYGPEIEISAPGVNVNSTYTGNRYVSLSGTSMATPHVAGVAALVKSRYPSYTNNQIRQRINQTATYLGSPSLYGNGLVHAGRATQ | 0.0069 | 0.008 | 0.0083 | 0.0008 | 0.0053 | 0.0038 | 0.59 | 0.85 | 0.0005 | 0.088 | 1 | –
Subtilisin 309 variant from Bacillus clausii (protein) AQSVPWGIERVQAPAAHNRGLTGSGVKVAVLDTGISTHPDLRIRGGASFVPGEPSTQDGNGHGTHVAGTIAALDNSIGVLGVAPSEALYAVKVLGASGSGSVSSIAQGLEWAGNNGMHVANLSLGSPSPSATLEQAVNSATSRGVLVVAASGNSGAGSISYPARYANAMAVGATDQNNNRASFSQYGAGLDIVAPGVNILSTWPGSTYASLNGTSMATPHVAGAAALVKQKNPSWSNVQIRNHLKNTATSLGDTWEYGSGLVNAEAATR | 0.0002 | 0.003 | 0.0025 | 0.0001 | 0.0001 | 0.0011 | 1 | 0.861 | 0.0003 | 0.0566 | 0.17 | –
Serine protease bppB from Bacillus pumilus JA16 (protein) VVIGDDGRTKVTNTRVAPYNSIAYITFGGSSCTGTLIAPNKILTNGHCVYNTATRSYSAKGSVYPGMNDSTAVNGSANMTEFYVPSGYINTGASQYDFAVIKTDTNIGNTVGYRSIRQVTNLTGTTIKISGYPGDKMRSTGKVSQWEMSGPVTREDTNLAYYTIDTFSGNSGSAMLDQNQQIVGVHNAGYSNGTINGGPKATAAFVEFINYAKAQ | 0 | 234 | 1 | 0 | 0.0043 | 0.0003 | 0 | 0 | 0 | 0 | 0.0005 | –
Subtilisin Carlsberg from Bacillus licheniformis (protein) AQTVPYGIPLIKADKVQAQGFKGANVKVAVLDTGIQASHPDLNVVGGASFVAGEAYNTDGNGHGTHVAGTVAALDNTTGVLGVAPSVSLYAVKVLNSSGSGSYSGIVSGIEWATTNGMDVINMSLGGASGSTAMKQAVDNAYARGVVVVAAAGNSGSSGNTNTIGYPAKYDSVIAVGAVDSNSNRASFSSVGAELEVMAPGAGVYSTYPTNTYATLNGTSMASPHVAGAAALILSKHPNLSASQVRNRLSSTATYLGSSFYYGKGLINVEAAAQ | 0.019 | 0.003 | 0.0033 | 0.0007 | 0.0008 | 0.0155 | 1 | 0.282 | 0.0005 | 0.0222 | 0.807 | –
